PMC5493754, “Myosin 7 and its adaptors link cadherins to actin” (Nature Communications, 2017)

T1: YFP-Full length (FL)-harmonin (harmonin-a1) (human, UniProt Q9Y6N9-1 1-552)
T1 construct: Harmonin-a1 (USH1C), human, residues 1-552 of UniProt Q9Y6N9-1; also called ^YFPFL (isoA); ^YFPFL; source: E. coli BL21 (DE3) Rosetta, purified (Glutathione Sepharose 4B, size-exclusion chromatography)
T1 sequence (looked up): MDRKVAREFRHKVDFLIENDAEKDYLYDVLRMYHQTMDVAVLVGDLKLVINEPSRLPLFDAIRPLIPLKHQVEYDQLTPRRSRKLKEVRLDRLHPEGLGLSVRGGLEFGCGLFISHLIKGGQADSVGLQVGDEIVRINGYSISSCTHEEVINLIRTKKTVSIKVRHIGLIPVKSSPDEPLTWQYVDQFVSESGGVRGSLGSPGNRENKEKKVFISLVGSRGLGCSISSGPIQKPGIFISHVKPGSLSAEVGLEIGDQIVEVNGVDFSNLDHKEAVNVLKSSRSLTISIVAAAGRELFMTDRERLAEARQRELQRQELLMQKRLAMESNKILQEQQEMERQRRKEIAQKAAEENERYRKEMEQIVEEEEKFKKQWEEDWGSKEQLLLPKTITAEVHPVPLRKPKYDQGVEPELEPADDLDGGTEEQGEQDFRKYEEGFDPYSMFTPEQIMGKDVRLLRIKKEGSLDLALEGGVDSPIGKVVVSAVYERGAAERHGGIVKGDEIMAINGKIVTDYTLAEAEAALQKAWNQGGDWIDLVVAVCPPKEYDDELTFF

T2: Myosin 7b MF1.SH3 (human, UniProt Q6PIF6 958-1586)
T2 construct: also called M7b MF1.SH3; Myo7b MF1.SH3; source: E. coli (BL21-AI, BL21 (DE3) Rosetta or BL21-Gold (DE3)), purified (Histrap, CaptoQ, gel filtration)
T2 sequence: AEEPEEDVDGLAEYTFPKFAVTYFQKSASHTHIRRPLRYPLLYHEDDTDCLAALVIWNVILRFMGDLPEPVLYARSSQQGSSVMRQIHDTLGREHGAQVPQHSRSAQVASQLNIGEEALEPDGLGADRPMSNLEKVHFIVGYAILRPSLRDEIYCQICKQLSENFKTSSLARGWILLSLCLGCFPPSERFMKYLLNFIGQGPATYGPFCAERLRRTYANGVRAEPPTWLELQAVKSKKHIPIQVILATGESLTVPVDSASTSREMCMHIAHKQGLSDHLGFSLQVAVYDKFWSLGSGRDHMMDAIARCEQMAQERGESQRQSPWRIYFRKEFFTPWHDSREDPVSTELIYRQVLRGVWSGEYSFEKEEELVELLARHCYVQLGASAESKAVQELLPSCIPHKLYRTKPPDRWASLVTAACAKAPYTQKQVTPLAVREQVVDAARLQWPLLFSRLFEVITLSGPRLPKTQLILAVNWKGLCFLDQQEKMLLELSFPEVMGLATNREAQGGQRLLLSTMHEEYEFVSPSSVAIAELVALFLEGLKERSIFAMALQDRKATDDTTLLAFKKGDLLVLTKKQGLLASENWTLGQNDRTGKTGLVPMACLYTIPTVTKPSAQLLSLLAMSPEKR

T3: Myosin 7a MF1.SH3 (human, UniProt Q13402-1 991-1692, residues 1523-1560 were deleted from MF1)
T3 construct: Myosin 7a, human, N-terminal MyTH4-FERM domain and SH3, residues 991-1692 of UniProt Q13402-1; residues 1523-1560 deleted; Thrombin site of the vector replaced by an SSG linker; also called M7a MF1.SH3; Myo7a MF1.SH3; source: E. coli (BL21-AI, BL21 (DE3) Rosetta or BL21-Gold (DE3)), purified (Histrap, CaptoQ, gel filtration)
T3 sequence (looked up): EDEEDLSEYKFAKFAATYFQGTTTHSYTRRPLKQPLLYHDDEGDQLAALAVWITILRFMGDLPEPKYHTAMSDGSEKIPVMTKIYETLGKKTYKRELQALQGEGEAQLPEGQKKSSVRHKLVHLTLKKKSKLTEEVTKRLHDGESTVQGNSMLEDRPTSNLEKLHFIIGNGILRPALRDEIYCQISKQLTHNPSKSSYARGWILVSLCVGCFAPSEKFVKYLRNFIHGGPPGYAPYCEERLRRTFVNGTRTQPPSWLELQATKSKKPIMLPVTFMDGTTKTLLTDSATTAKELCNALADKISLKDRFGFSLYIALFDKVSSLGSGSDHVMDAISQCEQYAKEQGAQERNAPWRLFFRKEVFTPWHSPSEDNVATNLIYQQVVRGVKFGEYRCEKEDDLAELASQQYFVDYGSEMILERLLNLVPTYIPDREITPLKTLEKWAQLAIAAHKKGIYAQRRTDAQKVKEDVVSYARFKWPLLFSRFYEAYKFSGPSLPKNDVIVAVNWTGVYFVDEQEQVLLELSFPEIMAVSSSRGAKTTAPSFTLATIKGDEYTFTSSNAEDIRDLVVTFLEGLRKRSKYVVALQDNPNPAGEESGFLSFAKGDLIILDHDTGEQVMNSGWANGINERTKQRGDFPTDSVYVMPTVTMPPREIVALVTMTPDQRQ

T4: YFP-Myosin 7b MF1.SH3 (human, UniProt Q6PIF6 958-1586)
T4 construct: Myosin 7b, human, MF1.SH3, residues 958-1586 of UniProt Q6PIF6; pET14-YFP vector; also called ^YFPM7b MF1.SH3; source: E. coli (BL21-AI, BL21 (DE3) Rosetta or BL21-Gold (DE3)), purified (Histrap, CaptoQ, gel filtration)
T4 sequence: T2 sequence

T5: Myo7a MF1.SH3 (Mus musculus, UniProt P97479)
T5 chain: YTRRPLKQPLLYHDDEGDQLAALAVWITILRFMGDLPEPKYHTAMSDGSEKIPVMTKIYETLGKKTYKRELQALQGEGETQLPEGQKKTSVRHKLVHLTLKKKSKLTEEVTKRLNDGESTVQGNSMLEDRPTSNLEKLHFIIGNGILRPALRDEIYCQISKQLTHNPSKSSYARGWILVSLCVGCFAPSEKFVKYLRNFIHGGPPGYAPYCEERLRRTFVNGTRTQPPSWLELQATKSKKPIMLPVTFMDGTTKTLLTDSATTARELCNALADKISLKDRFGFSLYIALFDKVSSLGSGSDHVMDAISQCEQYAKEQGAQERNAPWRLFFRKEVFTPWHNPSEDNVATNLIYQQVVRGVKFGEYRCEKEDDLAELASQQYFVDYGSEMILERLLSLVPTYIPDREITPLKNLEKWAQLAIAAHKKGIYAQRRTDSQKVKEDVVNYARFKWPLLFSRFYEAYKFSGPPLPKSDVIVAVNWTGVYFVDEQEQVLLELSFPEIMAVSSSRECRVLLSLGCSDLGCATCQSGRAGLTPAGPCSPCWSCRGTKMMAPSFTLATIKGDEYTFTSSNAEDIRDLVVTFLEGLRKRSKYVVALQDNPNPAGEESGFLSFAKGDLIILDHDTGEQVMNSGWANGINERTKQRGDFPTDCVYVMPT

B1: Harmonin NPDZ1 (non-fluorescent, as used in MST and SEC-MALS) (domain or fragment, human, UniProt Q9Y6N9-1 1-197, looked up)
chain: MDRKVAREFRHKVDFLIENDAEKDYLYDVLRMYHQTMDVAVLVGDLKLVINEPSRLPLFDAIRPLIPLKHQVEYDQLTPRRSRKLKEVRLDRLHPEGLGLSVRGGLEFGCGLFISHLIKGGQADSVGLQVGDEIVRINGYSISSCTHEEVINLIRTKKTVSIKVRHIGLIPVKSSPDEPLTWQYVDQFVSESGGVRG
notes: Harmonin-a1 (USH1C), human, N-terminal domain and PDZ1, residues 1-197 of UniProt Q9Y6N9-1; source: E. coli BL21 (DE3) Rosetta, purified (Glutathione Sepharose 4B, size-exclusion chromatography)
B2: ANKS4B_(CEN-PBM) with YFP-harmonin NPDZ1.PDZ2 (complex)
chain 1: SVHHESILNRPGLGSIVFRRNRISSPEDISDSKREFGFKLPSELLQRQGASEADEGAADEEGEENGLKDDLPWDDDEVEWEEDVVDATPLEVFLLSQHLEEFLPIFKREQIDLEALLLCSDEDLQSIQMQLGPRKKVLNAINRRKQVLQQPGQLVDTSL
chain 2: MDRKVAREFRHKVDFLIENDAEKDYLYDVLRMYHQTMDVAVLVGDLKLVINEPSRLPLFDAIRPLIPLKHQVEYDQLTPRRSRKLKEVRLDRLHPEGLGLSVRGGLEFGCGLFISHLIKGGQADSVGLQVGDEIVRINGYSISSCTHEEVINLIRTKKTVSIKVRHIGLIPVKSSPDEPLTWQYVDQFVSESGGVRGSLGSPGNRENKEKKVFISLVGSRGLGCSISSGPIQKPGIFISHVKPGSLSAEVGLEIGDQIVEVNGVDFSNLDHKEAVNVLKSSRSLTISIVAAAGRELFMTDR
notes: ANKS4B, human, residues 259-417 of UniProt Q8N8V4; as m43; Harmonin-a1 (USH1C), human, residues 1-301 of UniProt Q9Y6N9-1; as m31; also called ANKS4b+^YFPNPDZ1.PDZ2; ^YFPNPDZ1.PDZ2+ANKS4B_(CEN-PBM); source: purified E. coli proteins mixed
B3: YFP-SANS_(CEN-PBM) saturated with harmonin NPDZ1.PDZ2 (complex)
chain 1: DSGHDSLFTRPGLGTMVFRRNYLSSGLHGLGREDGGLDGVGAPRGRLQSSPSLDDDSLGSANSLQDRSCGEELPWDELDLGLDEDLEPETSPLETFLASLHMEDFAALLRQEKIDLEALMLCSDLDLRSISVPLGPRKKILGAVRRRRQAMERPPALEDTEL
chain 2: B2 chain 2
notes: SANS (USH1G), residues 300-461 of UniProt Q495M9; as m40; Harmonin-a1 (USH1C), human, residues 1-301 of UniProt Q9Y6N9-1; as m30; also called ^YFPSANS_(CEN-PBM)+NPDZ1.PDZ2; source: purified E. coli proteins mixed (saturating NPDZ1.PDZ2); not shown: YFP, N-terminal, kept
B4: ANKS4B_(CEN-PBM) (domain or fragment)
chain: B2 chain 1
notes: ANKS4B, human, residues 259-417 of UniProt Q8N8V4; source: E. coli (BL21-AI, BL21 (DE3) Rosetta or BL21-Gold (DE3)), purified (Histrap, CaptoQ, gel filtration)
B5: SANS_(CEN-PBM) (domain or fragment, UniProt Q495M9 300-461, looked up)
chain: B3 chain 1
notes: source: E. coli (BL21-AI, BL21 (DE3) Rosetta or BL21-Gold (DE3)), purified (Histrap, CaptoQ, gel filtration)
B6: ANKS4B CEN-PBM (protein)
chain: VEEDDDVQHESILNRPGLGSIVFSRNRVLDFEDISDSKRELGFKMPSELFQRQGAAGTVEEEEEEEEEEEEEKREANGTAGDLPWDEEEVEWEEDAVDATPLEVFLQSQHLEEFLPIFMREQIDLEALLLCSDEDLQNIHMQLGPRKKVLSAIDKRKQVLQQPGQLVDTSL

Tests used:
[1] = molecular target: T1, YFP-Full length (FL)-harmonin …; experiment: MST; as a1 but 150 mM NaCl (for FL-Harmonin-a); YFP-fused partner constant at 100 nM, non-fluorescent protein titrated; conditions: both partners purified
SANS_(CEN-PBM) = molecular target: B5; experiment: SEC-MALS; Superdex 10/300 Increase; 20 mM Tris pH 7.0, 100 mM NaCl, 1 mM EGTA, 0.5 mM TCEP; samples at about 20 mg/ml; conditions: both partners purified
Myosin 7b MF1.SH3 = molecular target: T2, Myosin 7b MF1.SH3; experiment: MST; YFP-fused partner held together with a third protein (saturating concentrations; competition experiments), non-fluorescent protein titrated; conditions: both partners purified
Myosin 7a MF1.SH3 [2] = molecular target: T3, Myosin 7a MF1.SH3; experiment: as above; conditions: both partners purified
YFP-Myosin 7b MF1.SH3 = molecular target: T4, YFP-Myosin 7b MF1.SH3; experiment: MST; YFP-fused partner constant at 100 nM, non-fluorescent protein titrated (16 two-fold dilutions); 20 mM Hepes pH 7.0, 100 mM NaCl, 1 mM EGTA, 0.5 mM TCEP, 0.05% Tween 20; Monolith NT.115; conditions: both partners purified
Myosin 7a MF1.SH3 [3] = molecular target: T3, Myosin 7a MF1.SH3; experiment: SEC-MALS; Superdex 10/300 Increase; 20 mM Tris pH 7.0, 100 mM NaCl, 1 mM EGTA, 0.5 mM TCEP; samples at about 20 mg/ml; conditions: both partners purified
Myo7a MF1.SH3 = molecular target: T5, Myo7a MF1.SH3

For B1, the Kd [1] was 11.3 µM and the “stoichiometry N” value (SANS_(CEN-PBM)) was 1.

With B2 the Kd (Myosin 7b MF1.SH3) was 4 µM.

B3 gave a Kd (Myosin 7a MF1.SH3 [2]) of 0.386 µM.

Work on B4 yielded a Kd (YFP-Myosin 7b MF1.SH3) of 2.9 ± 0.03 µM.

In the case of B5, the “stoichiometry N” value (Myosin 7a MF1.SH3 [3]) is reported as 1.

Binder B6 has a Kd (Myo7a MF1.SH3) of about 5 µM.
